T1: McsB(R194A), the McsB chain of the McsAZ2(R115A)-McsB(R194A) mutant (Bacillus subtilis strain 168, UniProt P37570 1-363, R194A)
T1 sequence: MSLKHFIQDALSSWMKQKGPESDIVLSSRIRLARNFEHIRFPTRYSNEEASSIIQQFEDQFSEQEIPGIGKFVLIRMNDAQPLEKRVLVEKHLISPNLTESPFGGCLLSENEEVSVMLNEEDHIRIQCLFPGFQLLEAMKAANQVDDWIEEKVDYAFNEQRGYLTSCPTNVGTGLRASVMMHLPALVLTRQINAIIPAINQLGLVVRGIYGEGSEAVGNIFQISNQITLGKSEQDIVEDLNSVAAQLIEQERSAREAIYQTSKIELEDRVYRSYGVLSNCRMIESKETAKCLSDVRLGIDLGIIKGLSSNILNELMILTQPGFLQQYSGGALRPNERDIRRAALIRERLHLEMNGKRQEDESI


Experiments:
[1] = biological target: McsAZ2-McsB complex (heterotetramer of a McsB dimer and two McsAZ2) (Bacillus subtilis strain 168) (UniProt P37569); assay: cryo-EM structure
[2] = biological target: T1, McsB(R194A), the McsB chain of the …; assay: SEC
cryo-EM structure = biological target: the molecule itself; assay: cryo-EM structure

Row | binding result [2] | Molecule | further results
1 | – | McsAZ2-McsB complex (heterotetramer of a McsB dimer and two McsAZ2) (from UniProt P37569;P37570) | stoichiometry N [1]: 2 tetramers
2 | binds | CtsR (B. subtilis transcriptional repressor), full length (natural protein) MGHNISDIIEQYLKRVLDQNGKEILEIKRSEIADKFQCVPSQINYVINTRFTSERGYIVESKRGGGGYIRIIKIKMNNEVVLINNIISQINTHLSQAASDDIILRLLEDKVISEREAKMMVSVMDRSVLHIDLPERDELRARMMKAMLTSLKLK | –
3 | – | McsB (B. subtilis protein-arginine kinase subunit), coexpressed with McsAZ2 (enzyme, phosphoarginine at 194 and 333 (pR194, pR333)) MSLKHFIQDALSSWMKQKGPESDIVLSSRIRLARNFEHIRFPTRYSNEEASSIIQQFEDQFSEQEIPGIGKFVLIRMNDAQPLEKRVLVEKHLISPNLTESPFGGCLLSENEEVSVMLNEEDHIRIQCLFPGFQLLEAMKAANQVDDWIEEKVDYAFNEQRGYLTSCPTNVGTGLRASVMMHLPALVLTRQINRIIPAINQLGLVVRGIYGEGSEAVGNIFQISNQITLGKSEQDIVEDLNSVAAQLIEQERSAREAIYQTSKIELEDRVYRSYGVLSNCRMIESKETAKCLSDVRLGIDLGIIKGLSSNILNELMILTQPGFLQQYSGGALRPNERDIRRAALIRERLHLEMNGKRQEDESI | stoichiometry N (cryo-EM structure): 2
4 | binds | CtsRCTD (C-terminal domain of CtsR, residues 75–154) (domain or fragment) KMNNEVVLINNIISQINTHLSQAASDDIILRLLEDKVISEREAKMMVSVMDRSVLHIDLPERDELRARMMKAMLTSLKLK | –
